Test [1] addresses HcA1 (receptor binding domain of BoNT/A1), HA- and His6-tagged, for binding studies (Clostridium botulinum, UniProt A2I2U2 876-1296). The test is described as follows: pull-down. Particulars: both partners purified.
In test [2] the target is HcA2 (receptor binding domain of BoNT/A2), HA- and His6-tagged, for binding studies (Clostridium botulinum A2 Kyoto-F, UniProt Q45894 874-1296). The test is described as follows: […]; Hepes buffer (50 mM Hepes pH 7.5, 150 mM NaCl); […]. Particulars: both partners purified.

The values below come from publication PMC5923319 (Toxins, 2018).

B1: GST-fused recombinant human SV2A-L4 (domain or fragment, UniProt Q7L0J3 468-596, looked up)
chain: FPDMIRHLQAVDYASRTKVFPGERVEHVTFNFTLENQIHRGGQYFNDKFIGLRLKSVSFEDSLFEECYFEDVTSSNTFFRNCTFINTVFYNTDLFEYKFVNSRLINSTFLHNKEGCPLDVTGTGEGAYM
notes: also called non-glycosylated SV2A
On to B1, for which the binding result in test [1] is “binds”.

B2: GST-fused recombinant human SV2C-L4 (domain or fragment, UniProt Q496J9 454-580, looked up)
chain: FPDVIKPLQSDEYALLTRNVERDKYANFTINFTMENQIHTGMEYDNGRFIGVKFKSVTFKDSVFKSCTFEDVTSVNTYFKNCTFIDTVFDNTDFEPYKFIDSEFKNCSFFHNKTGCQITFDDDYSAY
notes: also called non-glycosylated SV2C
Take B2: the binding result in test [1] and in test [2] was “binds” throughout.

B3: GST-fused recombinant human SV2B-L4 (domain or fragment, UniProt Q7L1I2 410-536, looked up)
chain: WFPDMIRYFQDEEYKSKMKVFFGEHVYGATINFTMENQIHQHGKLVNDKFTRMYFKHVLFEDTFFDECYFEDVTSTDTYFKNCTIESTIFYNTDLYEHKFINCRFINSTFLEQKEGCHMDLEQDNDF
notes: also called non-glycosylated SV2B
In the case of B3, the binding result in test [1] is recorded as “binds”.
